Results taken from patent US20220411483A1 (Chugai, published 2022).
Substitutions are numbered along the chain they refer to.

T1: FcγRIIa R type extracellular domain with C-terminal His tag (human, UniProt P12318 34-217)
T1 construct: extracellular domain; also called FcgRIIaR; not shown: His tag at the C terminus
T1 sequence (looked up): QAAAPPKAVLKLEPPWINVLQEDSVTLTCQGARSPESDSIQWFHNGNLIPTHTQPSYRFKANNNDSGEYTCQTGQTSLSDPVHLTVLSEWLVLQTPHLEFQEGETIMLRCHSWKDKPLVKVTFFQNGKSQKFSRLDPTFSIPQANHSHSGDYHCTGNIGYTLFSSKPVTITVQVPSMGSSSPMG

T2: FcγRIIb extracellular domain with C-terminal His tag (human, UniProt P31994 43-217)
T2 construct: extracellular domain; also called FcgRIIb; not shown: His tag at the C terminus
T2 sequence (looked up): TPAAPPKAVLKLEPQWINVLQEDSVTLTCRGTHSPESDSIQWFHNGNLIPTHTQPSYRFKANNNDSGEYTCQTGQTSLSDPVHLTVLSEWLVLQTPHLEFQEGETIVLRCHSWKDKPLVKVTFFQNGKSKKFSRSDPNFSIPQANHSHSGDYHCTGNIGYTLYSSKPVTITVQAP

T3: FcgRIIaR (human, UniProt P12318 34-217)
T3 construct: extracellular domain; also called FcγRIIa R type; FcγRIIa (R type)
T3 sequence (looked up): T1 sequence (looked up)

T4: FcgRIIb (human, UniProt P31994 43-217)
T4 construct: extracellular domain; also called FcγRIIb
T4 sequence (looked up): T2 sequence (looked up)

B1: IL6R-BP262/IL6R-L (antibody, human IgG1, kappa, name in EU numbering)
heavy: QVQLQESGPGLVKPSETLSLTCAVSGHSISHDHAWSWVRQPPGEGLEWIGFISYSGITNYNPSLQGRVTISRDNSKNTLYLQMNSLRAEDTAVYYCARSLARTTAMDYWGEGTLVTVSSASTKGPSVFPLAPSSKSTSGGTAALGCLVKDYFPEPVTVSWNSGALTSGVHTFPAVLQSSGLYSLSSVVTVPSSSLGTQTYICNVNHKPSNTKVDKKVEPKSCDKTHTCPPCPAPELLGDDSVFLFPPKPKDTLMISRTPEVTCVVVDVSEEDGEVKFNWYVDGVEVHNAKTKPREEQYNSTYRVVSVLTVLHQDWLNGKEYKCKVSNKALPAPIEKTISKAKGQPREPQVYTLPPSRDELTKNQVSLTCLVKGFYPSDIAVEWESNGQPENNYKTTPPVLDSDGSFFLYSKLTVDKSRWQQGNVFSCSVMHEALHNHYTQESLSLSP
light: not shown
notes: human IgG1
B2: IL6R-BP492/IL6R-L (antibody, human IgG1, kappa, name in EU numbering)
heavy: B1 heavy with D239G, V266I, S269A
light: not shown
notes: human IgG1
B3: IL6R-BP484/IL6R-L (antibody, human IgG1, kappa, name in EU numbering)
heavy: B1 heavy with E235D, S269A, E271D
light: not shown
notes: human IgG1
B4: IL6R-BP479/IL6R-L (antibody, human IgG1, kappa, name in EU numbering)
heavy: B1 heavy with E235D, V266I, V268L, S269A
light: not shown
notes: human IgG1
B5: IL6R-BP481/IL6R-L (antibody, human IgG1, kappa, name in EU numbering)
heavy: B1 heavy with E235D, V266I, S269A
light: not shown
notes: human IgG1
B6: IL6R-BP483/IL6R-L (antibody, human IgG1, kappa, name in EU numbering)
heavy: B1 heavy with E235D, V268L, S269A
light: not shown
notes: human IgG1
B7: IL6R-BP269/IL6R-L (antibody, human IgG1, kappa, name in EU numbering)
heavy: B1 heavy with Y298D
light: not shown
notes: human IgG1
B8: IL6R-P645/IL6R-L (antibody, human IgG1, kappa)
heavy: B1 heavy with E235D, V266I, D267K, S269A, Y298D, A332R, P398M, E441K
light: not shown
B9: IL6R-P634/IL6R-L (antibody, human IgG1, kappa)
heavy: B1 heavy with E235D, D239G, V266I, D267V, S269A, E441K
light: not shown
B10: IL6R-P701/IL6R-L (antibody, human IgG1, kappa)
heavy: B1 heavy with E235D, L236N, D239G, V266I, S269R, E441K
light: not shown
B11: IL6R-P647/IL6R-L (antibody, human IgG1, kappa)
heavy: B1 heavy with E235D, V266I, D267R, S269A, Y298D, A332R, P398M, E441K
light: not shown
B12: IL6R-P648/IL6R-L (antibody, human IgG1, kappa)
heavy: B1 heavy with E235D, V266I, D267S, S269A, Y298D, A332R, P398M, E441K
light: not shown
B13: IL6R-P650/IL6R-L (antibody, human IgG1, kappa)
heavy: B1 heavy with E235D, V266I, S269K, Y298D, A332R, P398M, E441K
light: not shown
B14: IL6R-P696/IL6R-L (antibody, human IgG1, kappa)
heavy: B1 heavy with E235D, D239R, V266I, S269R, E441K
light: not shown
B15: IL6R-P638/IL6R-L (antibody, human IgG1, kappa)
heavy: B1 heavy with E235D, L236H, V266I, S269A, Y298D, A332R, P398M, E441K
light: not shown
B16: IL6R-P639/IL6R-L (antibody, human IgG1, kappa)
heavy: B1 heavy with E235D, L236N, V266I, S269A, Y298D, A332R, P398M, E441K
light: not shown
B17: IL6R-P632/IL6R-L (antibody, human IgG1, kappa)
heavy: B1 heavy with E235D, D239G, V266I, D267R, S269A, E441K
light: not shown
B18: IL6R-P664/IL6R-L (antibody, human IgG1, kappa, N297A)
heavy: B1 heavy with E235D, D239G, V266I, S269A, N299A, E441K
light: not shown
B19: IL6R-P651/IL6R-L (antibody, human IgG1, kappa)
heavy: B1 heavy with E235D, V266I, S269R, Y298D, A332R, P398M, E441K
light: not shown
B20: IL6R-P642/IL6R-L (antibody, human IgG1, kappa)
heavy: B1 heavy with E235D, G238Q, V266I, S269A, Y298D, A332R, P398M, E441K
light: not shown
B21: IL6R-P640/IL6R-L (antibody, human IgG1, kappa)
heavy: B1 heavy with E235D, L236K, V266I, S269A, Y298D, A332R, P398M, E441K
light: not shown
B22: IL6R-P641/IL6R-L (antibody, human IgG1, kappa)
heavy: B1 heavy with E235D, L236R, V266I, S269A, Y298D, A332R, P398M, E441K
light: not shown
B23: IL6R-P646/IL6R-L (antibody, human IgG1, kappa)
heavy: B1 heavy with E235D, V266I, D267N, S269A, Y298D, A332R, P398M, E441K
light: not shown
B24: IL6R-P700/IL6R-L (antibody, human IgG1, kappa)
heavy: B1 heavy with E235D, L236A, D239G, V266I, S269R, E441K
light: not shown
B25: IL6R-P644/IL6R-L (antibody, human IgG1, kappa)
heavy: B1 heavy with E235D, D239K, V266I, S269A, Y298D, A332R, P398M, E441K
light: not shown
B26: IL6R-P697/IL6R-L (antibody, human IgG1, kappa)
heavy: B1 heavy with E235D, D239K, V266I, S269R, E441K
light: not shown
B27: IL6R-P649/IL6R-L (antibody, human IgG1, kappa)
heavy: B1 heavy with E235D, V266I, D267V, S269A, Y298D, A332R, P398M, E441K
light: not shown
B28: IL6R-P635/IL6R-L (antibody, human IgG1, kappa)
heavy: B1 heavy with E235D, D239G, V266I, S269K, E441K
light: not shown
B29: IL6R-P633/IL6R-L (antibody, human IgG1, kappa)
heavy: B1 heavy with E235D, D239G, V266I, D267S, S269A, E441K
light: not shown
B30: IL6R-P643/IL6R-L (antibody, human IgG1, kappa)
heavy: B1 heavy with E235D, D239R, V266I, S269A, Y298D, A332R, P398M, E441K
light: not shown

target: T1, FcγRIIa R type extracellular domain …; experiment: SPR, antibody captured, FcgR analyte

| Binder | Kd [nM] |
| --- | --- |
| B1 | 2000 |
| B2 | 920 |
| B3 | 780 |
| B4 | 900 |
| B5 | 400 |
| B6 | 1300 |
| B7 | 2200 |

target: T2, FcγRIIb extracellular domain with …; experiment: SPR, antibody captured, FcgR analyte

| Binder | Kd [nM] |
| --- | --- |
| B1 | 120 |
| B2 | 24 |
| B3 | 46 |
| B4 | 56 |
| B5 | 19 |
| B6 | 78 |
| B7 | 110 |

target: T5, FcγRIa extracellular domain with C-terminal His tag (human, UniProt P12314 16-292); experiment: SPR, antibody captured, FcgR analyte
T5 construct: also called FcgRIa; CD64; not shown: His tag at the C terminus
T5 sequence (P12314 16-292): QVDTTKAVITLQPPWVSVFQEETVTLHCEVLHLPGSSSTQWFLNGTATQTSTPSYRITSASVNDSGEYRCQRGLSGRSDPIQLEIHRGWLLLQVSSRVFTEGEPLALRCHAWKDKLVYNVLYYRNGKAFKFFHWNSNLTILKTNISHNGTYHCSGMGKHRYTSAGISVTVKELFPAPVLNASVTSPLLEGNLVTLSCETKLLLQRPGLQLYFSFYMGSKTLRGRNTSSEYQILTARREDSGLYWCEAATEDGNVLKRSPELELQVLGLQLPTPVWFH

| Binder | Kd [nM] |
| --- | --- |
| B1 | 10 |
| B2 | 0.79 |
| B3 | 0.82 |
| B4 | 5.3 |
| B5 | 1 |
| B6 | 1.3 |
| B7 | 14 |

target: T3, FcgRIIaR; experiment: SPR, amount bound per captured antibody

| Binder | Relative FcgRIIaR-binding Activity [IL6R-G1d/IL6R-L=100] |
| --- | --- |
| B8 | 5.2 |
| B9 | 2.8 |
| B10 | 7 |
| B11 | 5.6 |
| B12 | 40.3 |
| B13 | 41.6 |
| B14 | 6.1 |
| B15 | 78.3 |
| B16 | 109 |
| B17 | 4.1 |
| B18 | 10.8 |
| B19 | 75.7 |
| B20 | 103 |
| B21 | 75.1 |
| B22 | 61.5 |
| B23 | 72.5 |
| B24 | 5.8 |
| B25 | 34 |
| B26 | 3.6 |
| B27 | 2.9 |
| B28 | 6.4 |
| B29 | 15.3 |
| B30 | 58.7 |

target: T4, FcgRIIb; experiment: SPR, amount bound per captured antibody

| Binder | Relative FcgRIIb-binding Activity [IL6R-G1d/IL6R-L=100] |
| --- | --- |
| B8 | 13.7 |
| B9 | 6.5 |
| B10 | 47.6 |
| B11 | 15.2 |
| B12 | 152 |
| B13 | 155 |
| B14 | 73.7 |
| B15 | 176 |
| B16 | 184 |
| B17 | 8 |
| B18 | 33.9 |
| B19 | 168 |
| B20 | 175 |
| B21 | 178 |
| B22 | 170 |
| B23 | 175 |
| B24 | 38.1 |
| B25 | 171 |
| B26 | 28.7 |
| B27 | 6.9 |
| B28 | 71.9 |
| B29 | 56.4 |
| B30 | 178 |

target: T1, FcγRIIa R type extracellular domain …; experiment: SPR; KD of IL6R-B3/IL6R-L divided by KD of variant

| Binder | Relative FcgRIIaR-binding Activity |
| --- | --- |
| B1 | 0.5 |
| B2 | 1.2 |
| B3 | 1.4 |
| B4 | 1.2 |
| B5 | 2.7 |
| B6 | 0.8 |
| B7 | 0.5 |

target: T2, FcγRIIb extracellular domain with …; experiment: SPR; KD of IL6R-B3/IL6R-L divided by KD of variant

| Binder | Relative FcgRIIb-binding Activity |
| --- | --- |
| B1 | 25.8 |
| B2 | 131 |
| B3 | 67.6 |
| B4 | 55.3 |
| B5 | 159 |
| B6 | 39.6 |
| B7 | 27.3 |
